Experimental data as given in PMC6957217.

Biological target: E. coli bacteria
Assay: binding to whole E. coli cells in presence of purified E. coli B LPS
Conditions: read off a plot

Row | Substance | response (LPS 0.32 ng, parent: est. 32) [% Binding] | response (LPS 1.6 ng, parent: est. 47) [% Binding] | response (LPS 8 ng, parent: est. 62) [% Binding] | response (LPS 40 ng, parent: est. 87) [% Binding] | response (LPS 200 ng, parent: est. 130) [% Binding] | response (LPS 1000 ng, parent: est. 190) [% Binding] | response (LPS 5000 ng, parent: est. 230) [% Binding]
1 | Phage T4 LTF needle (gp37; amino acids 799–1026), wild type (from UniProt P03744) G938A | 90 | 85 | 92 | 92 | 100 | 110 | 120
2 | Phage T4 LTF needle (gp37; amino acids 799–1026), wild type (from UniProt P03744) N937A | 90 | 92 | 94 | 98 | 110 | 140 | 150
